The values below come from article PMC4505822.

The test concerns the target wild-type full-length recombinant human prion protein (human) (UniProt P04156). The test can be described thus: AFM height measurement with a calibration curve of marker proteins.

Consider “wild-type full-length recombinant human prion protein (from UniProt P04156 23-231) (natural protein)”, for which the stoichiometry N lay within 11 to 22 monomers.
